In the supplement of paper PMC10567573:

B1: IQUB (parent)
chain: EADYEDDSKIAFLMQLQDIQYLTE

Variants of: B1
Experiment: protein stability index of a GFP-peptide fusion (GPS, HEK-293T) (PSI 1-6); higher = more stable
Conditions: c terminus: a fixed tail appended
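Note: lentivirally expressed fusions sorted by FACS into six bins by GFP to DsRed ratio, PSI derived from sequencing read proportions per bin multiplied by bin number.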

Point of comparison: EADYEDDSKIAFLMNLQDIQYLTE [Q15N], protein stability index 2.84. Against it:
- EADYEDDSKIAFLMQLQDIQTLTE [Y21T] — higher, 4.06
- EADYEDDSKIAFLMQLQDIQLLTE [Y21L] — higher, 3.44
- EADYEDDSKIAFLMQLQDIQSLTE [Y21S] — higher, 3.52
- EADYEDDSKIAFLMQLQDIQVLTE [Y21V] — higher, 3.51
- EADYEDDSKIAFLMQLQDIQGLTE [Y21G] — higher, 4.07
- EADYEGDSKIAFLMQLQDIQYLTE [D6G] — lower, 2.38
- EADYENDSKIAFLMQLQDIQYLTE [D6N] — higher, 2.9
- EADYEMDSKIAFLMQLQDIQYLTE [D6M] — lower, 1.75
- EADYEKDSKIAFLMQLQDIQYLTE [D6K] — lower, 2.63
- EADYEVDSKIAFLMQLQDIQYLTE [D6V] — lower, 2.17
- EADYECDSKIAFLMQLQDIQYLTE [D6C] — lower, 2.68
- EADYEHDSKIAFLMQLQDIQYLTE [D6H] — lower, 2.4
- EADYEIDSKIAFLMQLQDIQYLTE [D6I] — lower, 2.21
- EADYEDDYKIAFLMQLQDIQYLTE [S8Y] — lower, 2.34
- EADYEDDAKIAFLMQLQDIQYLTE [S8A] — higher, 3.23
- EADYEDDDKIAFLMQLQDIQYLTE [S8D] — higher, 3.62
- EADYEDDFKIAFLMQLQDIQYLTE [S8F] — lower, 1.89
- EADYEDDQKIAFLMQLQDIQYLTE [S8Q] — higher, 3.32
- EADYEDDIKIAFLMQLQDIQYLTE [S8I] — lower, 2.15
- EADYEDDPKIAFLMQLQDIQYLTE [S8P] — lower, 2.6
- EADYEDDCKIAFLMQLQDIQYLTE [S8C] — lower, 2.29
- EADYGDDSKIAFLMQLQDIQYLTE [E5G] — lower, 2.49
- EADYRDDSKIAFLMQLQDIQYLTE [E5R] — lower, 2.63
- EADYADDSKIAFLMQLQDIQYLTE [E5A] — lower, 2.22
- EADYSDDSKIAFLMQLQDIQYLTE [E5S] — lower, 2.24
- EADYNDDSKIAFLMQLQDIQYLTE [E5N] — higher, 3.12
- EADYCDDSKIAFLMQLQDIQYLTE [E5C] — lower, 2.76
- EADYKDDSKIAFLMQLQDIQYLTE [E5K] — lower, 2.6
- EADYTDDSKIAFLMQLQDIQYLTE [E5T] — higher, 3.5
- EADYIDDSKIAFLMQLQDIQYLTE [E5I] — lower, 2.29
- EADYMDDSKIAFLMQLQDIQYLTE [E5M] — lower, 2.53
- EADYEDDSKIAFLIQLQDIQYLTE [M14I] — lower, 2.6
- EADYEDDSKIAFLYQLQDIQYLTE [M14Y] — higher, 2.92
- EADYEDDSKIAFLNQLQDIQYLTE [M14N] — higher, 4.26
- EADYEDDSKIAFLSQLQDIQYLTE [M14S] — higher, 3.95
- EADYEDDSKIAFLVQLQDIQYLTE [M14V] — lower, 2.7
- EADYEDDSKIAFLHQLQDIQYLTE [M14H] — higher, 3.96
- EADYEDDSKIAFLCQLQDIQYLTE [M14C] — higher, 3.21
- EADYEDDSKIAFLGQLQDIQYLTE [M14G] — higher, 4.37
- EADYEDDSKIAFLWQLQDIQYLTE [M14W] — lower, 2.42
- EADYEDDSKIAFLFQLQDIQYLTE [M14F] — lower, 2.46
- EADYEDDSKIAFLEQLQDIQYLTE [M14E] — higher, 4.06
- EADYEDDSKIAFLMQFQDIQYLTE [L16F] — higher, 3.42
- EADYEDDSKIAFLMQAQDIQYLTE [L16A] — higher, 4.13
- EADYEDDSKIAFLMQEQDIQYLTE [L16E] — higher, 3.96
- EADYEDDSKIAFLMQSQDIQYLTE [L16S] — higher, 4.26
- EADYEDDSKIAFLMQTQDIQYLTE [L16T] — higher, 3.75
- EADYEDDSKIAFLMQQQDIQYLTE [L16Q] — higher, 4.19
- EADYEDDSKIAFLMQIQDIQYLTE [L16I] — higher, 2.95
- EADYEDDSKIAFLMQNQDIQYLTE [L16N] — higher, 4.33
- EADYEDDSKIAFLMQDQDIQYLTE [L16D] — higher, 4.58
- EADYEDDSKIAFLMQLEDIQYLTE [Q17E] — higher, 3.43
- EADYEDDSKIAFLMQLRDIQYLTE [Q17R] — lower, 2.57
- EADYEDDSKIAFLMQLADIQYLTE [Q17A] — lower, 2.5
- EADYEDDSKIAFLMQLMDIQYLTE [Q17M] — lower, 2.17
- EADYEDDSKIAFLMQLTDIQYLTE [Q17T] — higher, 2.96
- EADYEDDSKIAFLMQLLDIQYLTE [Q17L] — lower, 2.68
- EADYEDDSKIAFLMQLGDIQYLTE [Q17G] — higher, 3.46
- EADYEDDSKIAFLMQLKDIQYLTE [Q17K] — higher, 2.87
- EADYEDDSKIAFLMQLQDAQYLTE [I19A] — higher, 4.17
- EADYEDDSKIAFLMQLQDKQYLTE [I19K] — higher, 4.86
- EADYEDDSKIAFLMQLQDRQYLTE [I19R] — higher, 3.78
- EADYEDDSKIAFLMQLQDLQYLTE [I19L] — higher, 2.86
- EADYEDDSKIAFLMQLQDCQYLTE [I19C] — higher, 3.96
- EADYEDDSKIAFLMQLQDQQYLTE [I19Q] — higher, 4.11
- EADYEDDSKIAFLMQLQDFQYLTE [I19F] — higher, 3.44
- EADYEDDSKIAFLMQLQDEQYLTE [I19E] — higher, 4.96
- EADYEDDSKIAFLMQLQDSQYLTE [I19S] — higher, 4.35
- EADYEDDSMIAFLMQLQDIQYLTE [K9M] — lower, 2.47
- EADYEDDSTIAFLMQLQDIQYLTE [K9T] — lower, 2.64
- EADYEDDSQIAFLMQLQDIQYLTE [K9Q] — higher, 3.21
- EADYEDDSCIAFLMQLQDIQYLTE [K9C] — lower, 1.86
- EADYEDDSRIAFLMQLQDIQYLTE [K9R] — higher, 2.89
- EADYEDDSEIAFLMQLQDIQYLTE [K9E] — higher, 3.39
- EADYEDDSAIAFLMQLQDIQYLTE [K9A] — lower, 2.48
- EADYEDDSVIAFLMQLQDIQYLTE [K9V] — lower, 2.3
- EADYEDDSYIAFLMQLQDIQYLTE [K9Y] — lower, 2.42
- EADYEDDSKNAFLMQLQDIQYLTE [I10N] — higher, 4.17
- EADYEDDSKWAFLMQLQDIQYLTE [I10W] — higher, 3.08
- EADYEDDSKVAFLMQLQDIQYLTE [I10V] — higher, 3.42
- EADYEDDSKGAFLMQLQDIQYLTE [I10G] — higher, 4.13
- EADYEDDSKAAFLMQLQDIQYLTE [I10A] — higher, 4
- EADYEDDSKLAFLMQLQDIQYLTE [I10L] — higher, 3
- EADYEDDSKSAFLMQLQDIQYLTE [I10S] — higher, 3.91
- IADYEDDSKIAFLMQLQDIQYLTE [E1I] — lower, 2.09
- CADYEDDSKIAFLMQLQDIQYLTE [E1C] — lower, 2.61
- MADYEDDSKIAFLMQLQDIQYLTE [E1M] — lower, 2.38
- LADYEDDSKIAFLMQLQDIQYLTE [E1L] — lower, 2.75
- PADYEDDSKIAFLMQLQDIQYLTE [E1P] — lower, 2.6
- KADYEDDSKIAFLMQLQDIQYLTE [E1K] — lower, 2.27
- WADYEDDSKIAFLMQLQDIQYLTE [E1W] — lower, 2.17
- HADYEDDSKIAFLMQLQDIQYLTE [E1H] — higher, 3.29
- EADYEDDSKIAFLMYLQDIQYLTE [Q15Y] — lower, 2.09
